Laboratory results published in US8409836B2, “Treatment of cellulosic material and enzymes useful therein” (Roal Oy, priority 2005, dated 2013).

How the values were obtained:
Format in all cases: biochemical
[1] = Thermal stability of purified cellobiohydrolases; conditions: 0.1% BSA, pH 5.0, 60 min, MUL substrate
Experimental: Thermal stability of the purified cellobiohydrolases was determined at different temperatures. The reaction was performed in the presence of 0.1% BSA at pH 5.0 for 60 min using 4-methylumbelliferyl-β-D-lactoside as substrate. C. thermophilum ALKO4265 CBH/Cel7A and A. thermophilum ALKO4245 CBH/Cel7A were stable up to 65° and 60° C., respectively. The T. reesei reference enzyme (CBHI/Cel7A) retained 100% of activity up to 55° C.

[2] = Hydrolysis with CBH enzyme mixtures, Avicel; conditions: additional enzymes EGII, bG; 48 h, 45° C., pH 5.0
Experimental: (§1) The performance of the purified recombinant cellobiohydrolases was evaluated in the hydrolysis studies with purified T. reesei enzymes. Hydrolysis was carried out with controlled mixtures of purified enzymes on several pre-treated substrates. […] In addition, pure T. reesei cellulases (purified as described by Suurnäkki et al., 2000) were used in the enzyme mixtures. The cellobiohydrolases used in the experiment were:
(§2) Each CBH/Cel7 to be tested (dosage 14.5 mg/g dry matter of substrate) was used either together with EGII/Cel5A of T. reesei (3.6 mg/g) or with a mixture containing T. reesei EGI/Cel7B (1.8 mg/g), EGII/Cel5A (1.8 mg/g), xylanase pI 9 (Tenkanen et al. 1992) (5000 nkat/g) and acetyl xylan esterase (AXE) (Sundberg and Poutanen, 1991) (250 nkat/g). All mixtures were supplemented with additional β-glucosidase from a commercial enzyme preparation Novozym 188 (176 nkat/g d.w.). Triplicate tubes containing the enzyme mixture and 10 mg (dry matter)/ml of the substrate suspended in 0.05 M sodium acetate were incubated in mixing by magnetic stirring at 45° C. for 48 h. Reference samples with inactivated enzymes and corresponding substrates were also prepared. The release of hydrolysis products was measured as reducing sugars with DNS method using glucose as standard (Table 30).
Crystalline cellulose (Avicel)

[3] = Specific activity on MUL; conditions: purified cellobiohydrolases, 50° C., pH 5.0
Experimental: (§3) The specific activity of the preparations was determined using 4-methylumbelliferyl-β-D-lactoside (MUL), 4-methylumbelliferyl-β-D-cellobioside (MUG2) or 4-methylumbelliferyl-β-D-cellotrioside (MUG3) as substrate (van Tilbeurgh et al., 1988) in 0.05 M sodium citrate buffer pH 5 at 50° C. for 10 min. Endoglucanase and xylanase activities were determined by standard procedures (according to IUPAC, 1987) using carboxymethyl cellulose (CMC) and birch glucuronoxylan (Bailey et al., 1992) as substrates. Specific activity against Avicel was calculated on the basis of reducing sugars formed in a 24 h reaction at 50° C., pH 5.0, with 1% substrate and 0.25 μM enzyme dosage. The protein content of the purified enzyme preparations was measured according to Lowry et al., 1951. To characterize the end products of hydrolysis, soluble sugars liberated in 24 h hydrolysis experiment, as described above, were analysed by HPLC (Dionex). Purified cellobiohydrolase I (CBHI/Cel7A) of Trichoderma reesei was used as a reference.

[4] = Specific activity on MUG3; conditions: purified cellobiohydrolases, 50° C., pH 5.0
Experimental: as §3

[5] = Hydrolysis with CBH enzyme mixtures, willow; conditions: additional enzymes EGII, bG, 48 h, 45° C., pH 5.0
Experimental: as §1, §2
Washed steam pre-treated willow fibre (pre-treatment for 14 min at 210° C.), dry matter 23.0% (WILLOW).

[6] = Hydrolysis with CBH enzyme mixtures, corn stover; conditions: additional enzymes EGII, bG, 48 h, 45° C., pH 5.0
Experimental: as §1, §2
Washed wet oxidized corn stover fibre (WOCS).

[7] = Endoglucanase activity on carboxymethyl cellulose; conditions: purified cellobiohydrolases, 50° C., pH 5.0
Experimental: as §3
(§4) Acremonium thermophilum ALKO4245 was grown as described in Example 1. The culture supernatant was incubated at 70° C. for 24 hours after which it was concentrated by ultrafiltration. The pure endoglucanase was obtained by sequential purification with hydrophobic interaction and cation exchange chromatography followed by gel filtration. The endoglucanase activity of the fractions collected during purification was determined using carboxymethyl cellulose (CMC) as substrate (procedure of IUPAC 1987). Protein content was measured by BioRad Assay Kit (Bio-Rad Laboratories) using bovine serum albumine as standard.
as §4, with “Thermoascus aurantiacus ALKO4242 was” for “Acremonium thermophilum ALKO4245 was”, “1.” for “1. The culture supernatant was incubated at 70° C. for 24 hours after which it was concentrated by ultrafiltration.”, “and anion” for “and cation”

[8] = Xylanase activity on birch xylan; conditions: purified cellobiohydrolases, 50° C., pH 5.0
Experimental: as §3
Acremonium thermophilum ALKO4245 was grown as described in Example 1. The culture supernatant was incubated at 70° C. for 24 hours after which, it was concentrated by ultrafiltration. The pure xylanase was obtained by sequential purification with hydrophobic interaction and cation exchange chromatography followed by gel filtration. The xylanase activity was determined using birch xylan as substrate (procedure of IUPAC 1987). Protein was assayed by BioRad Protein Assay Kit (Bio-Rad Laboratories) using bovine serum albumin as standard.
Thermoascus aurantiacus ALKO4242 was grown as described in Example 1. The pure xylanase was obtained by sequential purification with hydrophobic interaction, anion, and cation exchange chromatography followed by gel filtration. The xylanase activity was determined using birch xylan as substrate (procedure of IUPAC 1987). Protein was assayed by BioRad Protein Assay Kit (Bio-Rad Laboratories) using bovine serum albumin as standard.

[9] = Specific activity against Avicel; conditions: 50° C., pH 5.0, 24 h, 1% substrate, 0.25 μM enzyme
Experimental: as §3

[10] = Hydrolysis with CBH enzyme mixtures, spruce; conditions: additional enzymes EGII, bG; 48 h, 45° C., pH 5.0
Experimental: as §1, §2
Washed steam pre-treated spruce fibre (impregnation with 3% w/w SO2 for 20 min, followed by steam pre-treatment at 215° C. for 5 min), dry matter 25.9% (SPRUCE).

[11] = Specific activity on MUG2; conditions: purified cellobiohydrolases, 50° C., pH 5.0
Experimental: as §3

[12] = pH optimum of recombinant CBH/Cel7 proteins; conditions: McIlvaine buffer, pH range 3.0-8.0, MUL, 50° C., 10 min
Experimental: The recombinant CBH/Cel7 enzyme preparations were characterized in terms of pH optimum and thermal stability. The pH optimum of the recombinant CBH/Cel7 proteins from Thermoascus aurantiacus, Chaetomium thermophilum, and Acremonium thermophilum were determined in the universal McIlvaine buffer within a pH range of 3.0-8.0 using 4-methylumbelliferyl-β-D-lactoside (MUL) as a substrate (FIG. 3A). The pH optimum for Ct Cel7A and At Cel7A enzymes is at 5.5, above which the activity starts to gradually drop. The pH optimum of the recombinant crude Ta Cel7A is at 5.0 (FIG. 3A). Thermal stability of the recombinant Cel7 enzymes was determined by measuring the MUL activity in universal McIlvaine buffer at the optimum pH with reaction time of 1 h.

Row | Molecule | Thermal stability: temperature up to which stable / 100% of activity retained [1] | Hydrolysis products as reducing sugars, Avicel [2] | Specific activity, MUL [3] | Specific activity, MUG3 [4] | Hydrolysis products as reducing sugars, WILLOW ([5]; EGI, XYL, AXE) | Hydrolysis products as reducing sugars, WILLOW [5] | Hydrolysis products as reducing sugars, WOCS ([6]; EGI, XYL, AXE) | Hydrolysis products as reducing sugars, WOCS [6] | Specific activity, CMC [7] | Specific activity, Xylan [8] | Specific activity, Avicel [9] | Hydrolysis products as reducing sugars, SPRUCE [10] | Specific activity, MUG2 [11] | pH optimum [12]
1 | Tr Cel7A: purified cellobiohydrolase I (CBHI/Cel7A) of Trichoderma reesei used as a reference (protein, UniProt P62694 18-513, looked up) Exoglucanase 1: QSACTLQSETHPPLTWQKCSSGGTCTQQTGSVVIDANWRWTHATNSSTNCYDGNTWSSTLCPDNETCAKNCCLDGAAYASTYGVTTSGNSLSIGFVTQSAQKNVGARLYLMASDTTYQEFTLLGNEFSFDVDVSQLPCGLNGALYFVSMDADGGVSKYPTNTAGAKYGTGYCDSQCPRDLKFINGQANVEGWEPSSNNANTGIGGHGSCCSEMDIWEANSISEALTPHPCTTVGQEICEGDGCGGTYSDNRYGGTCDPDGCDWNPYRLGNTSFYGPGSSFTLDTTKKLTVVTQFETSGAINRYYVQNGVTFQQPNAELGSYSGNELNDDYCTAEEAEFGGSSFSDKGGLTQFKKATSGGMVLVMSLWDDYYANMLWLDSTYPTNETSSTPGAVRGSCSTSSGVPAQVESQSPNAKVTFSNIKFGPIGSTGNPSGGNPPGGNRGTTTTRRPATTTGSSPGPTQSHYGQCGGIGYSGPTVCASGTTCQVLNPYYSQCL | up to 55 °C | 4.7 mg/mL | 21.9 nkat/mg | 0.9 nkat/mg | 4.1 mg/mL | 2.9 mg/mL | 6.0 mg/mL | 2.9 mg/mL | 1.0 nkat/mg | 1.3 nkat/mg | 0.6 nkat/mg | 2.9 mg/mL | 4.3 nkat/mg | 
2 | Ct Cel7A: cellobiohydrolase of Chaetomium thermophilum ALKO4265, gene Ct cel7A, amino acid SEQ ID NO: 8, with CBD (protein) MMYKKFAALAALVAGASAQQACSLTAENHPSLTWKRCTSGGSCSTVNGAVTIDANWRWTHTVSGSTNCYTGNQWDTSLCTDGKSCAQTCCVDGADYSSTYGITTSGDSLNLKFVTKHQYGTNVGSRVYLMENDTKYQMFELLGNEFTFDVDVSNLGCGLNGALYFVSMDADGGMSKYSGNKAGAKYGTGYCDAQCPRDLKFINGEANVGNWTPSTNDANAGFGRYGSCCSEMDVWEANNMATAFTPHPCTTVGQSRCEADTCGGTYSSDRYAGVCDPDGCDFNAYRQGDKTFYGKGMTVDTNKKMTVVTQFHKNSAGVLSEIKRFYVQDGKIIANAESKIPGNPGNSITQEYCDAQKVAFSNTDDFNRKGGMAQMSKALAGPMVLVMSVWDDHYANMLWLDSTYPIDQAGAPGAERGACPTTSGVPAEIEAQVPNSNVIFSNIRFGPIGSTVPGLDGSNPGNPTTTVVPPASTSTSRPTSSTSSPVSTPTGQPGGCTTQKWGQCGGIGYTGCTNCVAGTTCTQLNPWYSQCL | up to 65 °C | 6.0 mg/mL | 54.0 nkat/mg | 1.5 nkat/mg | 4.0 mg/mL | 2.6 mg/mL | 5.6 mg/mL | 3.4 mg/mL | 5.5 nkat/mg | 6.7 nkat/mg | 1.4 nkat/mg | 2.6 mg/mL | 18.9 nkat/mg | 5.5
